Assay results published in US20050186593A1 (SALK INSTITUTE FOR BIOLOGICAL STUDIES, published 2005).
Each block holds one molecule with its values, some of them ahead of it.

Columns and labels:
[1] = target: Xenopus activin receptor xActRIIB, expressed in Xenopus embryos from injected synthetic RNA (Xenopus) (UniProt P27041); assay: cell-based or functional assay
[2] = target: T1, Mouse activin receptor, full length (encoded by clone pmActR2), expressed on transfected COS cells (mouse, UniProt P27038 20-513); assay: competition with 125I activin A on COS cells transfected with pmActR2
T1 construct: also called mActRII; ActRII
T1 sequence (P27038 20-513): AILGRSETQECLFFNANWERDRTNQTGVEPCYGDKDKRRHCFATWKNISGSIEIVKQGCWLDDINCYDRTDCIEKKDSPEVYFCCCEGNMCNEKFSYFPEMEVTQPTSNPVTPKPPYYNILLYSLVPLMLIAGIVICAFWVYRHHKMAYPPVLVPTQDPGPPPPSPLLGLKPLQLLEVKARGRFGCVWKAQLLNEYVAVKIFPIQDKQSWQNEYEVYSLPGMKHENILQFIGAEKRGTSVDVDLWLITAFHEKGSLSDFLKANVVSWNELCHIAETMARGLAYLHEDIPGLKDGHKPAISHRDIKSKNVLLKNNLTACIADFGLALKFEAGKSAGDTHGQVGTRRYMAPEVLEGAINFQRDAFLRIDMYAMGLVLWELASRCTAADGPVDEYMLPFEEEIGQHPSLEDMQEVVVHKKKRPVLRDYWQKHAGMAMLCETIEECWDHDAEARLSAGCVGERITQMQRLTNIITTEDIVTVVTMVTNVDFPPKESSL
Experimental: (§1) 10⁵ COS cells transfected with either pmActR1 or pmActR2, or 10⁶ untransfected COS cells, were plated in 6 well dishes and allowed to grow overnight. The cells were washed 2× with HDB, 0.1% BSA, and incubated at 22° for 90 minutes in 0.5 ml HDB, 0.1% BSA containing 100,000 cpm (approximately 1 ng, 75 pM) ¹²⁵I activin A (5 μg activin A was iodinated by chloramine T oxidation to a specific activity of 50-90 μCi/μg; iodinated activin A was purified on a 0.7×20 cm G-25 column) and varying amounts of unlabeled competitor hormone. Following binding, the cells were washed 3× with cold HDB, solubilized in 0.5 ml 0.5 N NaOH, removed from the dish and radioactivity was measured in a gamma counter. Data presented in FIG. 5 are expressed as % specific binding, where 100% specific binding is the difference between binding in the absence of competitor and binding in the presence of a 100 fold molar excess of unlabeled activin A. Binding parameters were determined using the program LIGAND [Munson P. J. and Rodbard, D., Anal. Biochem. 107:220-259 (1980)].
This affinity and specificity of binding match those observed following binding of activin A to a number of other activin-responsive cell types. […]

[3] = target: T2, Mouse activin receptor, C-terminally truncated (encoded by clone pmActR1), expressed on transfected COS cells (mouse, UniProt P27038 20-354); assay: 125I activin A competition radioreceptor assay on COS cells transfected with pmActR1; Scatchard/LIGAND
T2 construct: pmActR1 codes for a protein of 342 amino acids, the last 17 of them from the vector; It lacks a complete intracellular kinase domain; the real chain is truncated and its signal peptide (1-19) is removed
T2 sequence (P27038 20-354 limits assumed, form in doubt): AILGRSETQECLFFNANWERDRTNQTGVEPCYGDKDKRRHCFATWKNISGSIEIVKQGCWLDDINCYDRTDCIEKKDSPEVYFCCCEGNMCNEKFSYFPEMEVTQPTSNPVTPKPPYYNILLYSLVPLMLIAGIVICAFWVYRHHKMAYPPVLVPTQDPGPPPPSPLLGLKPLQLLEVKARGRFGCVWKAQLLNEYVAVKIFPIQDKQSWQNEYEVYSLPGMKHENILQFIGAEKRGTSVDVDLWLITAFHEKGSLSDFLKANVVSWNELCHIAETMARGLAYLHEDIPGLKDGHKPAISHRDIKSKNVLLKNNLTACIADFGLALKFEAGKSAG
Experimental: as §1
(§2) To verify that the cloned receptor is activin specific, competition binding experiments were performed on COS cells transiently transfected with either pmActR1 or pmActR2. […] This binding affinity is consistent with that measured on other activin-responsive cell types [see, for example, Campen, C. A. and Vale, W., Biochem. Biophys. Res. Comm. […]

[4] = target: T1, Mouse activin receptor, full length …; assay: 125I activin A competition radioreceptor assay on COS cells transfected with pmActR2; LIGAND
Experimental: as §1, §2

Sequence of Xenopus activin receptor xActRIIB, expressed in Xenopus embryos from injected synthetic RNA (Xenopus) (P27041 other isoform, or with tags, fused parts or gaps): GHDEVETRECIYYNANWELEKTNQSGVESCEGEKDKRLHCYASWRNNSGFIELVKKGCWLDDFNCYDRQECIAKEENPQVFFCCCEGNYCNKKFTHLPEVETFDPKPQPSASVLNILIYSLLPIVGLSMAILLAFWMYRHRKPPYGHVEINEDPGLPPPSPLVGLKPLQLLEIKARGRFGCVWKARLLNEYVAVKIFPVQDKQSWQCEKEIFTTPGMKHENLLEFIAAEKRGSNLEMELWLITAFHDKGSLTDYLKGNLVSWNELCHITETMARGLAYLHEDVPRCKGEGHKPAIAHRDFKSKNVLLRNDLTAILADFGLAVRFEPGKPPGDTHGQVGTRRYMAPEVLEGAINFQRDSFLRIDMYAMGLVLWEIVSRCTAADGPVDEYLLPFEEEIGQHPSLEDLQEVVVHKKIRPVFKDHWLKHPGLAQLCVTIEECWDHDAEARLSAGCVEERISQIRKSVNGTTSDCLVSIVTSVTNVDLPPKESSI

muscle-specific actin RNA in animal caps (ribonuclease protection assay); sensitivity to activin against control embryos, embryos injected with 0.4 ng xActRIIB RNA [1]: 10 fold
muscle-specific actin RNA in animal caps (ribonuclease protection assay); sensitivity to activin against control embryos, embryos injected with 2.0 ng xActRIIB RNA [1]: 100 fold
Molecule: Purified porcine activin A (from UniProt P03970 309-424) (ligand)

fold lower potency than activin A in competition [2]: ~10 fold
B1: Recombinant human (rh) inhibin A (ligand)
chain 1: STPLMSWPWSPSALRLLQRPPEEPAAHANCHRVALNISFQELGWERWIVYPPSFIFHYCHGGCGLHIPPNLSLPVPGAPPTPAQPYSLLPGAQPCCAALPGTMRPLHVRTTSDGGYSFKYETVPNLLTQHCACI
chain 2: GLECDGKVNICCKKQFFVSFKDIGWNDWIIAPSGYHANYCEGECPSHIAGTSGSSLSFHSTVINHYRMRGHSPFANLKSCCVPTKLRPMSMLYYDDGQNIIKKDIQNMIVEECGCS

Kd [3]: 0.18 nM
Kd [4]: 0.18 nM
B2: Recombinant human (rh) activin A (ligand, UniProt P08476 311-426, looked up)
chain: GLECDGKVNICCKKQFFVSFKDIGWNDWIIAPSGYHANYCEGECPSHIAGTSGSSLSFHSTVINHYRMRGHSPFANLKSCCVPTKLRPMSMLYYDDGQNIIKKDIQNMIVEECGCS
notes: also called 125I activin A; iodinated activin A

binding result [2]: binds
B3: Recombinant human (rh) activin B (ligand, UniProt P09529 293-407, looked up)
chain: GLECDGRTNLCCRQQFFIDFRLIGWNDWIIAPTGYYGNYCEGSCPAYLAGVPGSASSFHTAVVNQYRMRGLNPGTVNSCCIPTKLSTMSMLYFDDEYNIVKRDVPNMIVEECGCA
